# Where “and” joins values, the source holds several entries; their conditions need not be identical. Equal entries are not always repeated.
# B1: Lysozyme C, P61626 (parent)
# chain: MKALIVLGLVLLSVTVQGKVFERCELARTLKRLGMDGYRGISLANWMCLAKWESGYNTRATNYNAGDRSTDYGIFQINSRYWCNDGKTPGAVNACHLSCSALLQDNIADAVACAKRVVRDPQGIRAWVAWRNRCQNRDVRQYVQGCGV
# Variants of: B1
# Details: Homo sapiens; pH 2.5; Thermal; DSC; glycine-HCl 0.05 M; reversible: yes; structure 1LZ1; whole UniProt chain shown
Variant,Tm [°C],unfolding enthalpy (calorimetric) [kcal/mol]
V92M,63.4,107
V92L,62.4,100
V20I,65.1,108
V128L,61.9,105

# Same assay, conditions: Homo sapiens; pH 2.7; 64.9 °C; Thermal; DSC; glycine-HCl 0.05 M; reversible: yes; structure 1LZ1; whole UniProt chain shown
row,Variant,ddG of mutation (higher = less stable) [kcal/mol]
1,V92M,-0.65
2,V92L,-0.19
3,V92I,-0.45
4,V92F,0.29
5,V92G,0.22
6,V20I,-1.1
7,V20L,0.05
8,V20G,2.29
9,V20F,0.86
10,V20M,0.31
11,V128I,-0.86
12,V128F,0.05
13,V128L,-0.07
14,V128G,-0.48

# Same assay, conditions: Homo sapiens; pH 2.7; Thermal; DSC; glycine-HCl 0.05 M; reversible: yes; structure 1LZ1; whole UniProt chain shown
Variant,Tm,"change of melting temperature, mutant - wild type (higher = more stable) [°C]",heat capacity change of unfolding [kcal/mol/K],unfolding enthalpy (calorimetric)
V92M,66.9 °C and 64.9 °C,2,1.58,113 kcal/mol and 109 kcal/mol
V92L,65.3 °C and 65.5 °C and 64.9 °C,0.6,1.27,104 kcal/mol and 103 kcal/mol
V92I,66.6 °C and 64.9 °C,1.7,1.2,88.4 kcal/mol
V92F,64 °C and 64.9 °C,-0.9,1.34,110 kcal/mol
V92G,64.9 °C,–,–,–
V20I,68 °C and 68.3 °C and 64.9 °C,3.4,1.58,114 kcal/mol and 108 kcal/mol
V20L,64.5 °C and 64.7 °C and 64.9 °C,-0.2,1.22,109 kcal/mol
V20G,–,-7.5,1.31,107 kcal/mol
V20F,62.2 °C and 64.9 °C,-2.7,1.63,110 kcal/mol
V20M,63.9 °C,-1,1.55,113 kcal/mol
V128I,67.3 °C and 67.6 °C and 64.9 °C,2.7,1.65,111 kcal/mol and 107 kcal/mol
V128F,64.7 °C and 64.9 °C,-0.2,1.7,101 kcal/mol
V128M,66.3 °C and 66.5 °C and 64.9 °C,1.6,1.41,114 kcal/mol and 112 kcal/mol
V128L,65 °C and 65.1 °C and 64.9 °C,0.2,1.29,108 kcal/mol and 109 kcal/mol
V128G,66.5 °C and 64.9 °C,1.6,1.82,99.9 kcal/mol

# Same assay, conditions: Homo sapiens; pH 2.83; Thermal; DSC; glycine-HCl 0.05 M; reversible: yes; structure 1LZ1; whole UniProt chain shown
Variant,Tm [°C],unfolding enthalpy (calorimetric) [kcal/mol]
V92M,69.4,117
V92L,67.5,107
V20G,59.5,99.7

# Same assay, conditions: Homo sapiens; pH 3.1; Thermal; DSC; glycine-HCl 0.05 M; reversible: yes; structure 1LZ1; whole UniProt chain shown
Variant,Tm [°C],unfolding enthalpy (calorimetric) [kcal/mol]
V92M,73.2,123
V92F,70.5,117

# Same assay, conditions: Homo sapiens; pH 3.2; Thermal; DSC; glycine-HCl 0.05 M; reversible: yes; structure 1LZ1; whole UniProt chain shown
Variant,Tm [°C],unfolding enthalpy (calorimetric) [kcal/mol]
V92M,75,125

# Same assay, conditions: Homo sapiens; pH 3.05; Thermal; DSC; glycine-HCl 0.05 M; reversible: yes; structure 1LZ1; whole UniProt chain shown
Variant,Tm [°C],unfolding enthalpy (calorimetric) [kcal/mol]
V92L,71.6,112
V20L,70.4,116

# Same assay, conditions: Homo sapiens; pH 3.15; Thermal; DSC; glycine-HCl 0.05 M; reversible: yes; structure 1LZ1; whole UniProt chain shown
Variant,Tm [°C],unfolding enthalpy (calorimetric) [kcal/mol]
V92L,73.3,114

# Same assay, conditions: Homo sapiens; pH 2.67; Thermal; DSC; glycine-HCl 0.05 M; reversible: yes; structure 1LZ1; whole UniProt chain shown
Variant,Tm [°C],unfolding enthalpy (calorimetric) [kcal/mol]
V92I,66.1,89.9

# Same assay, conditions: Homo sapiens; pH 2.8; Thermal; DSC; glycine-HCl 0.05 M; reversible: yes; structure 1LZ1; whole UniProt chain shown
Variant,Tm [°C],unfolding enthalpy (calorimetric) [kcal/mol]
V92I,68.3,92.5
V128F,66.3,103

# Same assay, conditions: Homo sapiens; pH 3; Thermal; DSC; glycine-HCl 0.05 M; reversible: yes; structure 1LZ1; whole UniProt chain shown
Variant,Tm [°C],unfolding enthalpy (calorimetric) [kcal/mol]
V92I,71.7,96.6

# Same assay, conditions: Homo sapiens; pH 2.68; Thermal; DSC; glycine-HCl 0.05 M; reversible: yes; structure 1LZ1; whole UniProt chain shown
Variant,Tm [°C],unfolding enthalpy (calorimetric) [kcal/mol]
V92F,63.6,108
V20F,62,106

# Same assay, conditions: Homo sapiens; pH 2.84; Thermal; DSC; glycine-HCl 0.05 M; reversible: yes; structure 1LZ1; whole UniProt chain shown
Variant,Tm [°C],unfolding enthalpy (calorimetric) [kcal/mol]
V92F,66.3,112

# Same assay, conditions: Homo sapiens; pH 3.23; Thermal; DSC; glycine-HCl 0.05 M; reversible: yes; structure 1LZ1; whole UniProt chain shown
Variant,Tm [°C],unfolding enthalpy (calorimetric) [kcal/mol]
V92F,72.4,120
V128I,76.8,127

# Same assay, conditions: Homo sapiens; pH 3.4; Thermal; DSC; glycine-HCl 0.05 M; reversible: yes; structure 1LZ1; whole UniProt chain shown
Variant,Tm [°C],unfolding enthalpy (calorimetric) [kcal/mol]
V92F,75.6,124
V20G,69,112

# Same assay, conditions: Homo sapiens; pH 2.53; Thermal; DSC; glycine-HCl 0.05 M; reversible: yes; structure 1LZ1; whole UniProt chain shown
Variant,Tm [°C],unfolding enthalpy (calorimetric) [kcal/mol]
V92G,61.3,108
V128I,64.9,107

# Same assay, conditions: Homo sapiens; pH 2.95; Thermal; DSC; glycine-HCl 0.05 M; reversible: yes; structure 1LZ1; whole UniProt chain shown
Variant,Tm [°C],unfolding enthalpy (calorimetric) [kcal/mol]
V92G,68.7,121

# Same assay, conditions: Homo sapiens; pH 3.09; Thermal; DSC; glycine-HCl 0.05 M; reversible: yes; structure 1LZ1; whole UniProt chain shown
Variant,Tm [°C],unfolding enthalpy (calorimetric) [kcal/mol]
V92G,70.8,124
V20F,68.6,116
V20M,70.6,122

# Same assay, conditions: Homo sapiens; pH 3.3; Thermal; DSC; glycine-HCl 0.05 M; reversible: yes; structure 1LZ1; whole UniProt chain shown
Variant,Tm [°C],unfolding enthalpy (calorimetric) [kcal/mol]
V92G,74,129
V128G,76.6,122

# Same assay, conditions: Homo sapiens; pH 2.92; Thermal; DSC; glycine-HCl 0.05 M; reversible: yes; structure 1LZ1; whole UniProt chain shown
Variant,Tm [°C],unfolding enthalpy (calorimetric) [kcal/mol]
V20I,72.2,119

# Same assay, conditions: Homo sapiens; pH 3.13; Thermal; DSC; glycine-HCl 0.05 M; reversible: yes; structure 1LZ1; whole UniProt chain shown
Variant,Tm [°C],unfolding enthalpy (calorimetric) [kcal/mol]
V20I,75.5,125
V128I,74.9,123

# Same assay, conditions: Homo sapiens; pH 2.65; Thermal; DSC; glycine-HCl 0.05 M; reversible: yes; structure 1LZ1; whole UniProt chain shown
Variant,Tm [°C],unfolding enthalpy (calorimetric) [kcal/mol]
V20G,56.6,95.6

# Same assay, conditions: Homo sapiens; pH 3.08; Thermal; DSC; glycine-HCl 0.05 M; reversible: yes; structure 1LZ1; whole UniProt chain shown
Variant,Tm [°C],unfolding enthalpy (calorimetric) [kcal/mol]
V20G,63.8,105

# Same assay, conditions: Homo sapiens; pH 3.19; Thermal; DSC; glycine-HCl 0.05 M; reversible: yes; structure 1LZ1; whole UniProt chain shown
Variant,Tm [°C],unfolding enthalpy (calorimetric) [kcal/mol]
V20G,65.7,108

# Same assay, conditions: Homo sapiens; pH 2.87; Thermal; DSC; glycine-HCl 0.05 M; reversible: yes; structure 1LZ1; whole UniProt chain shown
Variant,Tm [°C],unfolding enthalpy (calorimetric) [kcal/mol]
V20F,65,110

# Same assay, conditions: Homo sapiens; pH 3.22; Thermal; DSC; glycine-HCl 0.05 M; reversible: yes; structure 1LZ1; whole UniProt chain shown
Variant,Tm [°C],unfolding enthalpy (calorimetric) [kcal/mol]
V20F,71.2,121

# Same assay, conditions: Homo sapiens; pH 2.52; Thermal; DSC; glycine-HCl 0.05 M; reversible: yes; structure 1LZ1; whole UniProt chain shown
Variant,Tm [°C],unfolding enthalpy (calorimetric) [kcal/mol]
V20M,60.6,106

# Same assay, conditions: Homo sapiens; pH 2.73; Thermal; DSC; glycine-HCl 0.05 M; reversible: yes; structure 1LZ1; whole UniProt chain shown
Variant,Tm [°C],unfolding enthalpy (calorimetric) [kcal/mol]
V20M,64.5,112

# Same assay, conditions: Homo sapiens; pH 2.94; Thermal; DSC; glycine-HCl 0.05 M; reversible: yes; structure 1LZ1; whole UniProt chain shown
Variant,Tm [°C],unfolding enthalpy (calorimetric) [kcal/mol]
V20M,68.3,118
V128G,70.6,110

# Same assay, conditions: Homo sapiens; pH 3.31; Thermal; DSC; glycine-HCl 0.05 M; reversible: yes; structure 1LZ1; whole UniProt chain shown
Variant,Tm [°C],unfolding enthalpy (calorimetric) [kcal/mol]
V20M,74.2,127

# Same assay, conditions: Homo sapiens; pH 2.9; Thermal; DSC; glycine-HCl 0.05 M; reversible: yes; structure 1LZ1; whole UniProt chain shown
Variant,Tm [°C],unfolding enthalpy (calorimetric) [kcal/mol]
V128I,70.9,117

# Same assay, conditions: Homo sapiens; pH 2.72; Thermal; DSC; glycine-HCl 0.05 M; reversible: yes; structure 1LZ1; whole UniProt chain shown
Variant,Tm [°C],unfolding enthalpy (calorimetric) [kcal/mol]
V128F,65.1,101

# Same assay, conditions: Homo sapiens; pH 3.04; Thermal; DSC; glycine-HCl 0.05 M; reversible: yes; structure 1LZ1; whole UniProt chain shown
Variant,Tm [°C],unfolding enthalpy (calorimetric) [kcal/mol]
V128F,70.5,110

# Same assay, conditions: Homo sapiens; pH 2.48; Thermal; DSC; glycine-HCl 0.05 M; reversible: yes; structure 1LZ1; whole UniProt chain shown
Variant,Tm [°C],unfolding enthalpy (calorimetric) [kcal/mol]
V128M,62.8,109

# Same assay, conditions: Homo sapiens; pH 3.06; Thermal; DSC; glycine-HCl 0.05 M; reversible: yes; structure 1LZ1; whole UniProt chain shown
Variant,Tm [°C],unfolding enthalpy (calorimetric) [kcal/mol]
V128M,72.8,123

# Same assay, conditions: Homo sapiens; pH 2.82; Thermal; DSC; glycine-HCl 0.05 M; reversible: yes; structure 1LZ1; whole UniProt chain shown
Variant,Tm [°C],unfolding enthalpy (calorimetric) [kcal/mol]
V128L,67,111

# Same assay, conditions: Homo sapiens; pH 3.03; Thermal; DSC; glycine-HCl 0.05 M; reversible: yes; structure 1LZ1; whole UniProt chain shown
Variant,Tm [°C],unfolding enthalpy (calorimetric) [kcal/mol]
V128L,70.5,115

# Same assay, conditions: Homo sapiens; pH 3.25; Thermal; DSC; glycine-HCl 0.05 M; reversible: yes; structure 1LZ1; whole UniProt chain shown
Variant,Tm [°C],unfolding enthalpy (calorimetric) [kcal/mol]
V128L,74.5,121

# Same assay, conditions: Homo sapiens; pH 2.6; Thermal; DSC; glycine-HCl 0.05 M; reversible: yes; structure 1LZ1; whole UniProt chain shown
Variant,Tm [°C],unfolding enthalpy (calorimetric) [kcal/mol]
V128G,64.6,99.9

# Same assay, conditions: Homo sapiens; pH 3.11; Thermal; DSC; glycine-HCl 0.05 M; reversible: yes; structure 1LZ1; whole UniProt chain shown
Variant,Tm [°C],unfolding enthalpy (calorimetric) [kcal/mol]
V128G,73.4,115
